Reference: article PMC11661173 (bioRxiv, 2025)

Assays:
Recombinant AR-LBD = molecular target: T1, Recombinant AR-LBD (human, UniProt P10275 672-920); assay: SPR
T1 sequence (looked up): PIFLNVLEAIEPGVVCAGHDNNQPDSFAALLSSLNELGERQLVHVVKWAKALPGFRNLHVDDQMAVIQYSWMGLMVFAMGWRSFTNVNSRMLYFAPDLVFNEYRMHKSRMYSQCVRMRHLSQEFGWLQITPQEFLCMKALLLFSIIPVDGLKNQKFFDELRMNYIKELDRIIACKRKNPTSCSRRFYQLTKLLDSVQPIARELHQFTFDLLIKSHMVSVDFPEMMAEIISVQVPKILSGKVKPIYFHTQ

Recombinant ERα-LBD = molecular target: T2, Recombinant ERα-LBD (human, UniProt P03372 302-595); assay: SPR
T2 sequence (looked up): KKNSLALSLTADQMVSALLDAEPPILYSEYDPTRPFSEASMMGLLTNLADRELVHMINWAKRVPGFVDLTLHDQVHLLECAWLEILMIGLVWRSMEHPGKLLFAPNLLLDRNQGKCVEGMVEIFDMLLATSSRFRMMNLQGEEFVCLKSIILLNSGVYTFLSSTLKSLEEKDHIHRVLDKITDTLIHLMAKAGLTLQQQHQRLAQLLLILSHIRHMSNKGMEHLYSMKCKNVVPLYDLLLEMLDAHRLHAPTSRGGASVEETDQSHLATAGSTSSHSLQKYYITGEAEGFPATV

B1: human NIPBL-C2^WT peptide (peptide)
peptide: KPEWPAAELLLSLLGRLLVHQFSNKSTE
- binding result (Recombinant AR-LBD): binds
- binding result (Recombinant ERα-LBD): binds
